From the Human Domainome abundance scans (Beltran et al. 2025)
± gives the uncertainty stated by the source.

B1: Transcription intermediary factor 1-beta, residues 620 to 671; numbered along this chain, Q13263 (parent)
chain: TLDDSATICRVCQKPGDLVMCNQCEFCFHLDCHLPALQDVPGEEWSCSLCHV

Variants of: B1
Assay: abundance fitness (aPCA) (normalised: wild type 0, dead -1); higher = more abundant; growth selection in yeast, the domain comes from the species named
Settings: Homo sapiens
In the case of N22S, the abundance fitness is reported as -0.066 ± 0.12. For N22T, the abundance fitness was -0.182 ± 0.13. N22G showed an abundance fitness of -0.27 ± 0.098. N22E gave an abundance fitness of 0.094 ± 0.15. Variant N22C has an abundance fitness of -0.092 ± 0.22. For N22F, the abundance fitness was -0.281 ± 0.23. N22Q gave an abundance fitness of -0.116 ± 0.18. N22M showed an abundance fitness of -0.337 ± 0.16. Variant N22A has an abundance fitness of -0.232 ± 0.11. Work on N22P yielded an abundance fitness of -0.382 ± 0.19. N22L showed an abundance fitness of -0.561 ± 0.11. In the case of N22I, the abundance fitness is reported as -0.316 ± 0.21. N22K showed an abundance fitness of 0.05 ± 0.17. N22H gave an abundance fitness of -0.449 ± 0.23. In the case of N22R, the abundance fitness is reported as -0.11 ± 0.12. C24A gave an abundance fitness of -0.666 ± 0.14. For C24W, the abundance fitness was -1.04 ± 0.19. C24M showed an abundance fitness of -0.918 ± 0.25. For C24S, the abundance fitness was -1 ± 0.17. C24V showed an abundance fitness of -1.08 ± 0.17. Variant C24F has an abundance fitness of -0.965 ± 0.22. For C24N, the abundance fitness was -1.19 ± 0.4. For C24I, the abundance fitness was -1.07 ± 0.36. Work on C24D yielded an abundance fitness of -0.769 ± 0.27. C24P gave an abundance fitness of -0.928 ± 0.28. Variant C24K has an abundance fitness of -0.894 ± 0.27. In the case of C24T, the abundance fitness is reported as -0.842 ± 0.18. With C24H the abundance fitness was -1.01 ± 0.24. For C24G, the abundance fitness was -0.541 ± 0.12. In the case of C24R, the abundance fitness is reported as -0.685 ± 0.099. In the case of C12Y, the abundance fitness is reported as -1 ± 0.26. In the case of H29K, the abundance fitness is reported as -0.807 ± 0.28. H29C gave an abundance fitness of -0.67 ± 0.2. H29M showed an abundance fitness of -0.967 ± 0.19. H29L showed an abundance fitness of -1.01 ± 0.15. H29E gave an abundance fitness of -0.919 ± 0.23. Variant H29T has an abundance fitness of -0.637 ± 0.17. For H29D, the abundance fitness was -0.883 ± 0.29. In the case of H29G, the abundance fitness is reported as -0.899 ± 0.18. For H29I, the abundance fitness was -1.12 ± 0.27. With H29Y the abundance fitness was -0.921 ± 0.26. H29W showed an abundance fitness of -0.908 ± 0.28. With H29Q the abundance fitness was -0.957 ± 0.25. In the case of H29V, the abundance fitness is reported as -0.952 ± 0.15. H29P showed an abundance fitness of -1.34 ± 0.34. H29F gave an abundance fitness of -0.864 ± 0.27. Variant H29N has an abundance fitness of -0.504 ± 0.19. With H29R the abundance fitness was -0.749 ± 0.13. In the case of H29A, the abundance fitness is reported as -1.01 ± 0.21. M20W showed an abundance fitness of -0.73 ± 0.14. Variant M20P has an abundance fitness of 0.067 ± 0.17. For M20C, the abundance fitness was -0.225 ± 0.15. With M20F the abundance fitness was -0.192 ± 0.15. For M20H, the abundance fitness was -0.755 ± 0.32. For M20S, the abundance fitness was -0.112 ± 0.11. With M20V the abundance fitness was -0.322 ± 0.1. In the case of M20A, the abundance fitness is reported as -0.312 ± 0.12. With M20L the abundance fitness was -0.391 ± 0.11. For M20D, the abundance fitness was -0.574 ± 0.45. Work on M20Y yielded an abundance fitness of -0.296 ± 0.19. M20G showed an abundance fitness of -0.29 ± 0.095. For M20N, the abundance fitness was -0.337 ± 0.17. In the case of M20E, the abundance fitness is reported as -0.304 ± 0.12. In the case of M20R, the abundance fitness is reported as 0.003 ± 0.088. M20I gave an abundance fitness of -0.379 ± 0.2. M20K showed an abundance fitness of -0.354 ± 0.2. Variant R10S has an abundance fitness of 0.161 ± 0.13. Work on R10F yielded an abundance fitness of -0.271 ± 0.16. Work on R10C yielded an abundance fitness of -0.363 ± 0.16. Variant R10P has an abundance fitness of -0.301 ± 0.13. In the case of R10A, the abundance fitness is reported as -0.327 ± 0.12. Work on R10Q yielded an abundance fitness of -0.296 ± 0.13. R10T gave an abundance fitness of -0.037 ± 0.13. With R10N the abundance fitness was 0.094 ± 0.18. Variant R10K has an abundance fitness of 0.206 ± 0.15. Work on R10V yielded an abundance fitness of -0.143 ± 0.098. R10W showed an abundance fitness of -0.574 ± 0.14. For R10H, the abundance fitness was 0.136 ± 0.2. For R10M, the abundance fitness was -0.113 ± 0.13. R10I gave an abundance fitness of -0.866 ± 0.28. For R10Y, the abundance fitness was -0.257 ± 0.22. In the case of R10D, the abundance fitness is reported as -0.108 ± 0.17. Variant R10E has an abundance fitness of -0.476 ± 0.17. Work on R10G yielded an abundance fitness of -0.291 ± 0.1. Work on Q23M yielded an abundance fitness of -0.371 ± 0.16. Q23D showed an abundance fitness of -0.234 ± 0.4. Q23F gave an abundance fitness of -0.292 ± 0.26. Q23N gave an abundance fitness of -0.014 ± 0.21. Q23L gave an abundance fitness of -0.199 ± 0.1. Work on Q23P yielded an abundance fitness of -0.93 ± 0.21. Q23K showed an abundance fitness of -0.113 ± 0.21. For Q23A, the abundance fitness was -0.395 ± 0.12. For Q23C, the abundance fitness was -0.043 ± 0.13. Variant Q23Y has an abundance fitness of -0.336 ± 0.21. With Q23I the abundance fitness was -0.373 ± 0.21. Q23H showed an abundance fitness of -0.486 ± 0.29. Work on Q23R yielded an abundance fitness of -0.172 ± 0.12. Work on Q23T yielded an abundance fitness of -0.066 ± 0.17. Variant Q23W has an abundance fitness of -0.383 ± 0.13. Work on Q23V yielded an abundance fitness of -0.214 ± 0.1. In the case of Q23S, the abundance fitness is reported as -0.089 ± 0.11. In the case of C21S, the abundance fitness is reported as -0.968 ± 0.15. Work on C21W yielded an abundance fitness of -1.14 ± 0.26. C21Q gave an abundance fitness of -0.8 ± 0.35. Variant C21G has an abundance fitness of -0.871 ± 0.11. C21P gave an abundance fitness of -0.697 ± 0.36. Variant C21I has an abundance fitness of -0.807 ± 0.29. C21V gave an abundance fitness of -0.826 ± 0.11. C21N showed an abundance fitness of -0.565 ± 0.21. C21D showed an abundance fitness of -0.575 ± 0.18. Variant C21H has an abundance fitness of -0.445 ± 0.25. With C21F the abundance fitness was -0.962 ± 0.26. C21T gave an abundance fitness of -0.95 ± 0.27. C21A showed an abundance fitness of -0.995 ± 0.16. For C21L, the abundance fitness was -0.837 ± 0.13. For C21E, the abundance fitness was -0.434 ± 0.16. C21M gave an abundance fitness of -1.24 ± 0.35. With C27Y the abundance fitness was 0.002 ± 0.16. With D17H the abundance fitness was 0.01 ± 0.15. D17A showed an abundance fitness of -0.639 ± 0.19. D17T showed an abundance fitness of -0.074 ± 0.12. For D17F, the abundance fitness was -0.099 ± 0.21. Variant D17M has an abundance fitness of -0.364 ± 0.21. With D17R the abundance fitness was -0.062 ± 0.098. D17G gave an abundance fitness of 0.076 ± 0.1. Variant D17S has an abundance fitness of -0.004 ± 0.098. Work on D17L yielded an abundance fitness of -0.301 ± 0.12. Variant D17N has an abundance fitness of -0.256 ± 0.2. Work on D17Y yielded an abundance fitness of -0.512 ± 0.17. In the case of D17Q, the abundance fitness is reported as -0.186 ± 0.2. In the case of D17E, the abundance fitness is reported as -0.119 ± 0.16. With D17C the abundance fitness was -0.151 ± 0.16. Work on D17W yielded an abundance fitness of -0.522 ± 0.15. Work on D17K yielded an abundance fitness of -0.018 ± 0.16. D17P gave an abundance fitness of -0.604 ± 0.15. D17I showed an abundance fitness of -0.409 ± 0.24. With D17V the abundance fitness was -0.355 ± 0.11. L18M gave an abundance fitness of -0.599 ± 0.25. Work on L18I yielded an abundance fitness of -0.371 ± 0.15. With L18Q the abundance fitness was -0.483 ± 0.3. With L18S the abundance fitness was -0.789 ± 0.15. For L18W, the abundance fitness was -0.834 ± 0.17. Work on L18C yielded an abundance fitness of -0.317 ± 0.15. L18A gave an abundance fitness of -0.559 ± 0.13. In the case of L18P, the abundance fitness is reported as -0.729 ± 0.24. For L18E, the abundance fitness was -0.374 ± 0.14. For L18Y, the abundance fitness was -0.632 ± 0.24. L18G showed an abundance fitness of -0.642 ± 0.12. For L18T, the abundance fitness was 0.162 ± 0.15. L18H gave an abundance fitness of -0.664 ± 0.4. Work on L18N yielded an abundance fitness of -0.662 ± 0.23. L18F showed an abundance fitness of -0.697 ± 0.25. For L18K, the abundance fitness was -0.636 ± 0.23. L18R showed an abundance fitness of -0.889 ± 0.13. Variant F28R has an abundance fitness of -0.284 ± 0.093. Variant F28A has an abundance fitness of -0.098 ± 0.13. F28L showed an abundance fitness of -0.393 ± 0.11. With F28M the abundance fitness was -0.318 ± 0.14. In the case of F28Y, the abundance fitness is reported as -0.09 ± 0.17. With F28S the abundance fitness was -0.424 ± 0.12. In the case of F28D, the abundance fitness is reported as -0.554 ± 0.34. Variant F28V has an abundance fitness of -0.227 ± 0.092. With F28E the abundance fitness was -0.321 ± 0.14. In the case of F28G, the abundance fitness is reported as -0.593 ± 0.12. F28N showed an abundance fitness of -0.724 ± 0.28. Variant F28C has an abundance fitness of -0.211 ± 0.15. With F28I the abundance fitness was -0.016 ± 0.16.
